The target of test [1] is T1, PD-L1 (in the mixed lymphocyte reaction of human dendritic cells and CD4+ T cells) (human, UniProt Q9NZQ7 19-290). Put plainly: cell-based or functional assay.
For test [2], the target named is T2, hPD-L1-EGFP细胞 (HEK293 cells expressing human PD-L1-EGFP) (human, UniProt Q9NZQ7 19-290).
T2 construct: Fusion expressed on transfected HEK293 cells; junction between PD-L1 and EGFP not described; also called 细胞表面PD-L1; not shown: enhanced green fluorescent protein EGFP, UniProt C5MKY7
T2 sequence (Q9NZQ7 19-290): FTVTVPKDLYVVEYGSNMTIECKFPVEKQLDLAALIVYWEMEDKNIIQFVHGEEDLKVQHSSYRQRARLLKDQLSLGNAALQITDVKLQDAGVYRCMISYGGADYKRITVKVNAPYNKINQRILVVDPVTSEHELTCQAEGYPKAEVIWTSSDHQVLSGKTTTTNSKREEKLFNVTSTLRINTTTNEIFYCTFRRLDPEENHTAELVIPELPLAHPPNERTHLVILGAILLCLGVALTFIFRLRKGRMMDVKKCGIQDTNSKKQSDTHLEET
Put plainly: FACS on PD-L1-EGFP cells.

The target in test [3] is T3, 重组的人PD-L1-His (human, UniProt Q9NZQ7 19-238, limits assumed).
T3 construct: Analyte in the BLI assays; also called hPD-L1-His; hPD-L1; not shown: His tag
T3 sequence (Q9NZQ7 19-238 limits assumed): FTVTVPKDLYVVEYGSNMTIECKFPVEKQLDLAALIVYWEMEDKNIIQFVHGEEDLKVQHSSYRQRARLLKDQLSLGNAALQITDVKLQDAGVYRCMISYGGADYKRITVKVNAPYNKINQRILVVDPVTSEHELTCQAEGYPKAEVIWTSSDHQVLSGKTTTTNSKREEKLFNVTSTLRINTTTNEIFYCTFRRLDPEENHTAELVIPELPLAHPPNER
Put plainly: BLI (Octet K2), antibody on AMC sensor, hPD-L1-His analyte. A general note: BLI is a label-free optical method that tracks binding on a fibre tip over time.

Test [4] addresses T4, hB7H3-EGFP细胞 (HEK293 cells expressing human B7H3-EGFP) (human, UniProt Q5ZPR3 29-534).
T4 construct: not shown: enhanced green fluorescent protein EGFP, UniProt C5MKY7
T4 sequence (looked up): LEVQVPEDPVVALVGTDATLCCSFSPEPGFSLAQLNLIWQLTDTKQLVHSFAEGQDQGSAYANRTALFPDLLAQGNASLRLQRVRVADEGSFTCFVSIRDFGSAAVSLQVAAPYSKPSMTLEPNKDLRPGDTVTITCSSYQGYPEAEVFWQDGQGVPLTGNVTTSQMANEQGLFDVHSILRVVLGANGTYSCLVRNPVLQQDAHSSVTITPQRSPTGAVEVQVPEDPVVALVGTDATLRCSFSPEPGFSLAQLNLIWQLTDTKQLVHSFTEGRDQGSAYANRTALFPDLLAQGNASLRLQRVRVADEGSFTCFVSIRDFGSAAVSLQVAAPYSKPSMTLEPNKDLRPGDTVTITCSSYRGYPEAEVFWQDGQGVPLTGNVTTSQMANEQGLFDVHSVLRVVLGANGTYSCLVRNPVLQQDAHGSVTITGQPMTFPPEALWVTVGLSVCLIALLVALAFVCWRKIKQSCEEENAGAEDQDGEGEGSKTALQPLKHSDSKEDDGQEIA
The test is described as follows: FACS on transfected HEK293 cells.

For test [5], the target named is T5, hPD-1-EGFP细胞 (HEK293 cells expressing human PD-1-EGFP) (human, UniProt Q15116 25-288).
T5 construct: Fusion expressed on transfected HEK293 cells; not shown: enhanced green fluorescent protein EGFP, UniProt C5MKY7
T5 sequence (Q15116 25-288): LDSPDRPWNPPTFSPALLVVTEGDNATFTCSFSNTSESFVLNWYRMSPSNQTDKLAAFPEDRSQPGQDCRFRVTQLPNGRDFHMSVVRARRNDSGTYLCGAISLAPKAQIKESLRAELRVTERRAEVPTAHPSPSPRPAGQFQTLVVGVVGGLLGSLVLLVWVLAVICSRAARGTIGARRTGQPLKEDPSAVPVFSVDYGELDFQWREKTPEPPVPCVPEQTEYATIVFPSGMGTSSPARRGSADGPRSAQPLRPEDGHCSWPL
Put plainly: FACS on transfected HEK293 cells.

Test [6] addresses T6, mPD-L1细胞 (HEK293 cells expressing mouse PD-L1-EGFP) (mouse, UniProt Q9EP73 19-290).
T6 construct: also called mPD-L1-EGFP; 小鼠PD-L1; not shown: enhanced green fluorescent protein EGFP, UniProt C5MKY7
The test is described as follows: FACS on transfected HEK293 cells.

In test [7] the target is T7, hB7H4细胞 (HEK293 cells expressing human B7H4-EGFP) (human, UniProt Q7Z7D3 25-282).
T7 construct: also called hB7H4-EGFP; not shown: enhanced green fluorescent protein EGFP, UniProt C5MKY7
T7 sequence (looked up): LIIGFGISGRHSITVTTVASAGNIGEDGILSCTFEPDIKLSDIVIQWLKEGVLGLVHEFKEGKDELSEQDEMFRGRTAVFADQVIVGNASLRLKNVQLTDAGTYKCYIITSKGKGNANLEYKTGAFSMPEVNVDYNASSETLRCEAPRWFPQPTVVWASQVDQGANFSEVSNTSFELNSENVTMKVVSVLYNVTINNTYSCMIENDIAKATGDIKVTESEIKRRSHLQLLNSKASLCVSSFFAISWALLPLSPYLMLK
The test is described as follows: FACS on transfected HEK293 cells.

The target of test [8] is T3, 重组的人PD-L1-His. Put plainly: BLI (Octet K2), antibody on AHC sensor, hPD-L1-His analyte.
Test [9] concerns the target T1, PD-L1 (in the mixed lymphocyte reaction …). Put plainly: cell-based or functional assay. The source holds these as a separate data set.
For another test, the target named is T8, hPD-L1-Fc (human, UniProt Q9NZQ7 19-238).
T8 construct: range 1-238; The stated range 1-238 begins at residue 1 and so includes the native signal peptide; No linker is stated; also called hPD-L1-Fc融合蛋白
T8 sequence (Q9NZQ7 19-238 limits assumed, form in doubt): as the sequence (Q9NZQ7 19-238 limits assumed) above
Put plainly: ELISA blocking assay, hPD-L1-Fc coated, competitor PD-1-Biotin 10μg/ml. In general terms: ELISA stands for enzyme-linked immunosorbent assay.

The target of test [10] is T1, PD-L1 (in the mixed lymphocyte reaction …). Put plainly: cell-based or functional assay. The source holds these as a separate data set.
For test [11], the target named is T3, 重组的人PD-L1-His. The test is described as follows: BLI as in Example 4, hPD-L1-His analyte.
The target of test [12] is T3, 重组的人PD-L1-His. The test is described as follows: BLI as in Example 4, hPD-L1-His analyte. This is another data set of the same source.

Positions count from the first letter of the chain named. In names and notes the source's numbering stands. Like-named read-outs stand apart in the source and are kept apart here.

The EC50 is the concentration needed to bring the measured effect to its halfway point. Read a high EC50 as lower potency in that assay. The Kd is the equilibrium constant for the complex coming apart. What is called koff is the rate constant with which the complex falls apart. Low values mean slow dissociation, high ones fast dissociation. A word on the kon: it is the second-order rate constant of association. Usually IC50 stands for the concentration needed to halve the response being measured. A lower IC50 goes with higher potency.

T1 sequence (Q9NZQ7 19-290 limits assumed): as the sequence (Q9NZQ7 19-290) above
T6 sequence (Q9EP73 19-290): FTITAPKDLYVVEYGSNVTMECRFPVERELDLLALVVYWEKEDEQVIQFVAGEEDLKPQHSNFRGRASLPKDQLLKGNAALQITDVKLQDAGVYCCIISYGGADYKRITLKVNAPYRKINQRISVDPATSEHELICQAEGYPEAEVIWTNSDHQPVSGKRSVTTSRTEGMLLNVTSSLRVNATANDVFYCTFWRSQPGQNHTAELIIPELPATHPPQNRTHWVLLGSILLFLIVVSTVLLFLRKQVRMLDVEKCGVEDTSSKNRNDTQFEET

B1: 抗体5A5 (antibody, V domains shown)
VH: EVQLQESGPSLVKPSQTLSLTCSVTGDSITSGYWNWIRKFPGNKLEYMGYISYTGSTYYNPSLKSRISITRDTSKNQYYLQLNSVTTEDTATYYCAKYGLWHLPAAMDYWGQGTSVTVSS
VL: DIVLTQSPAIMSASPGEKVTMTCSASSSISYMHWYQQKPGTSPKRWIYDTSKLASGVPARFSGSGSGTSYSLTISSMEAEDAATYYCHQRSSYPFTFGSGTKLEIK
notes: Mouse antibody purified from hybridoma supernatant on protein A
Regarding B1, the “EC50 of IFN-γ secretion in mixed lymphocyte reaction (MLR)” value (“EC50 of IFN-γ secretion” below) in test [1] is 0.104 µg/mL. Also, the response in [2] was half-maximal at 1.33 µg/mL (EC50). For the same molecule, binding with 重组的人PD-L1-His [3] was characterised by a dissociation constant (Kd) of 5.75 nM. Further, in the test with 重组的人PD-L1-His [3], the koff worked out at 0.00453 s⁻¹. The kon with 重组的人PD-L1-His [3] is 788000 M⁻¹ s⁻¹. In addition, the binding result in test [4], in [5], in test [6] and in [7] was “no binding (tested: 10μg/ml)” in each case.

B2: 抗体7A3 (antibody, V domains shown)
VH: B1 VH with K44D, K97R, Y98F, M107L
VL: B1 VL with S26K
notes: as for B1
In the case of B2, the “EC50 of IFN-γ secretion” value in test [1] amounted to 0.0588 µg/mL. The EC50 in test [2] turned out to be 2.76 µg/mL. In the test with 重组的人PD-L1-His [3], the dissociation constant (Kd) was determined as 4.29 nM. This molecule had a koff in the test with 重组的人PD-L1-His [3] of 0.0036 s⁻¹. In the test with 重组的人PD-L1-His [3], this molecule yielded an on-rate constant (kon) of 840000 M⁻¹ s⁻¹. Besides, the binding result in [4], in test [5], in [6] and in test [7] was “no binding (tested: 10μg/ml)” in each case.

B3: 人源化抗体7A3 3-3 (antibody, V domains shown)
VH: QVQLQESGPGLVKPSETLSLTCTVSGDSITSGYWNWIRKPPGNGLEYMGYISYTGSTYYNPSLKSRITITRDTSKNQYSLKLSSVTAADTAVYYCARFGLWHLPAALDYWGQGTLVTVSS
VL: DIVLTQSPATLSLSPGERATLSCSAKSSISYMHWYQQKPGTSPKRWIYDTSKLASGVPARFSGSGSGTSYTLTISSLEPEDFAVYYCHQRSSYPFTFGQGTKVEIK
notes: Humanized; also called 7A3VLV3 + 7A3VHV3
As to B3, the dissociation constant (Kd) was determined as 2.85 nM in the test with 重组的人PD-L1-His [8] and 13.2 nM with 重组的人PD-L1-His [11]. The koff came out at 0.00128 s⁻¹ with 重组的人PD-L1-His [8] and 0.00547 s⁻¹ with 重组的人PD-L1-His [11]. For the same molecule, the kon in the test with 重组的人PD-L1-His [8] is 449000 M⁻¹ s⁻¹; in the test with 重组的人PD-L1-His [11], 415000 M⁻¹ s⁻¹. Moreover, the “EC50 of IFN-γ secretion” value came to 0.449 µg/mL in [9] and 0.0285 µg/mL in test [10]. Moreover, the half-maximal inhibitory concentration (IC50) with hPD-L1-Fc was 1.44 µg/mL.

B4: 7A3 3-3QG (antibody, V domains shown)
VH: B3 VH with N43Q
VL: B3 VL
notes: human IgG1 format as for 7A3 3-3; also called 7A3 3-3 with N43Q in VH
For B4, the “EC50 of IFN-γ secretion” value in [10] is 1.05 µg/mL.

B5: 人源化抗体7A3 1-3 (antibody, V domains shown)
VH: B3 VH
VL: B3 VL with T41Q, S42A, K44R, R45L, W46L, S69D, Y70F
notes: Humanized; also called 7A3VLV1 + 7A3VHV3
In the test with 重组的人PD-L1-His [8], B5 displayed an equilibrium dissociation constant (Kd) of 23.6 nM, a koff of 0.0119 s⁻¹ and a kon of 504000 M⁻¹ s⁻¹. The “EC50 of IFN-γ secretion” value in test [9] is around 0.176 µg/mL. In addition, in the test with hPD-L1-Fc, the IC50 was determined as 1.82 µg/mL.

B6: 7A3 3-3ND (antibody, V domains shown)
VH: B3 VH with G44D
VL: B3 VL
notes: human IgG1 format as for 7A3 3-3; also called 7A3 3-3 with G44D in VH
B6: in test [10], the “EC50 of IFN-γ secretion” value amounted to 0.576 µg/mL. In the test with 重组的人PD-L1-His [11], the Kd worked out at 14.4 nM, the koff is 0.00631 s⁻¹ and the kon is 438000 M⁻¹ s⁻¹.

B7: 人源化抗体8G1 3-3 (antibody, V domains shown)
VH: QVQLVQSGAEVKKPGASVKVSCKASGYTFTEYIIHWVKQAPGQGLEWIGWFYPGSGNIRYNEKFKDKATLTADKSSSTVYMELSSLRSEDTAVYFCARHEDKGAWFAYWGQGTLVTVSS
VL: DIVLTQSPATLSLSPGERATLSCSASSNVSYMYWYQQKPGQSPKPWIYLTSNLASGVPARFTGSGSGTSYTLTISSLEPEDFAVYYCQQWSSNPLTFGQGTKVEIK
notes: Humanized; also called 8G1VLV3 + 8G1VHV3
For B7, in the test with 重组的人PD-L1-His [8], the affinity, expressed as Kd, was 0.0163 nM; the koff turned out to be 5.79e-06 s⁻¹; the kon is 355000 M⁻¹ s⁻¹. The molecule further displayed an IC50 with hPD-L1-Fc of 1.24 µg/mL.

B8: 8G1 3-3NG (antibody, V domains shown)
VH: B7 VH
VL: B7 VL with N28Q
notes: Glycosylation-site variant of humanized 8G1 3-3; human IgG1 format as for 8G1 3-3; also called 8G1 3-3 with N28 mutated in VL
Regarding B8, in the test with 重组的人PD-L1-His [12], the Kd came out at 6.89 nM, the koff amounted to 0.00174 s⁻¹ and the kon turned out to be 252000 M⁻¹ s⁻¹.

B9: 抗体8G1 (antibody, V domains shown)
VH: KVQLRQSGAELVKPGTSVKLSCKASGYTFTEYIIHWVKQRSGQGLEWIGWFYPGSGNIRYNEKFKDKATLTADKSSSTVYMELSRLTSEDSAVYFCARHEDKGAWFAYWGQGTLVTVSA
VL: DIVLTQSPALLSASPGEKVTMTCSASSNVSYMYWYQQKPRSSPKPWIYLTSNLASGVPARFTGSGSGTSYSLTISSMEAEDGATYYCQQWSSNPLTFGAGTKLEVK
notes: as for B1
B9: in test [1], the “EC50 of IFN-γ secretion” value was around 0.03 µg/mL. In [2], this molecule registered a half-maximal effective concentration (EC50) of 2.25 µg/mL. Besides, binding with 重组的人PD-L1-His [3] was characterised by a dissociation constant (Kd) of 2.32 nM. In the test with 重组的人PD-L1-His [3], this molecule showed a koff of 0.00117 s⁻¹. In addition, the kon with 重组的人PD-L1-His [3] amounted to 504000 M⁻¹ s⁻¹. The binding result in test [4], in test [5], in test [6] and in [7] was “no binding (tested: 10μg/ml)” in each case.

For the origin of these results see patent CN111662383A (ZHUHAI LIVZON MCAB BIOTECHNOLOGY CO LTD; DINGFU BIOTARGET …, dated 2020).
